These are literature values, as cited in article PMC8980424.

Some targets named below: IFNAR2 (Mus musculus) (UniProt O35664); IFNAR1 (Mus musculus) (UniProt P33896); IFNAR1 (Homo sapiens) (UniProt P17181); IFNAR2 (Homo sapiens) (UniProt P48551).
Sequence of UniProt P17181 (P17181 28-436): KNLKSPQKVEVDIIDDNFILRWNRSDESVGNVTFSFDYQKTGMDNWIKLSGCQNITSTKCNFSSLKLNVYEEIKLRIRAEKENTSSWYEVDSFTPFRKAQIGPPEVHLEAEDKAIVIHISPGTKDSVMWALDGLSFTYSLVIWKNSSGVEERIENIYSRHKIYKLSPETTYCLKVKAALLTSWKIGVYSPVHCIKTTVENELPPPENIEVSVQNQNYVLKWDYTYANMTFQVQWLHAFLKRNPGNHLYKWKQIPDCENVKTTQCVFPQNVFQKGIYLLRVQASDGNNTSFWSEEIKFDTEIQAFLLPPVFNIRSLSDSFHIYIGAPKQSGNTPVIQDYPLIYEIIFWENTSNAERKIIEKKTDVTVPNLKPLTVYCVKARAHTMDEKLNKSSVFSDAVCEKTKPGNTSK
Sequence of UniProt P48551 (P48551 27-243): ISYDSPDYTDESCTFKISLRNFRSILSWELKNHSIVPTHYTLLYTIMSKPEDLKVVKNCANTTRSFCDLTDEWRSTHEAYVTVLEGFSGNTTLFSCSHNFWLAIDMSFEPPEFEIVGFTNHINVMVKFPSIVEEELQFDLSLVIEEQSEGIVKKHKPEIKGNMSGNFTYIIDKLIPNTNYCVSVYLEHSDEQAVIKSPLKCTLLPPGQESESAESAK
Sequence of UniProt P33896 (P33896 27-429): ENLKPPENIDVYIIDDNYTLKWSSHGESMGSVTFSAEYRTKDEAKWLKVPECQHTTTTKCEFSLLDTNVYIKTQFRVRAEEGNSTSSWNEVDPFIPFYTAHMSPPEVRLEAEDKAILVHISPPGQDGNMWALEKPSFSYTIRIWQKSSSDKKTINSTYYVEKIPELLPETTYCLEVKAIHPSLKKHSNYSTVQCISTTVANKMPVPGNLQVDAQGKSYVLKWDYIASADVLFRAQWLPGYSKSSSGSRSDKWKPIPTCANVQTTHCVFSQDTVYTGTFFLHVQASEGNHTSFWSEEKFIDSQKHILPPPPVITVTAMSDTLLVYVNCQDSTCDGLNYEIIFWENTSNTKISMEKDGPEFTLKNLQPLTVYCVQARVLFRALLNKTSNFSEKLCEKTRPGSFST
Sequence of UniProt O35664 (O35664 22-242): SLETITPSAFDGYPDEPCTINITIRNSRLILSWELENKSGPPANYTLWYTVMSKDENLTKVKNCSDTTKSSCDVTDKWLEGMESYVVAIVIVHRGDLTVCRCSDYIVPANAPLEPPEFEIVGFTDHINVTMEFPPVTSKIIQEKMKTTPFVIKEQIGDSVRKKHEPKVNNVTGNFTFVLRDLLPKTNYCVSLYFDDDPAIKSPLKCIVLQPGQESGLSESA

For orientation: Kd means the free concentration of one partner at which half of the binding sites on the other are occupied at equilibrium, for simple one-to-one binding. As for Interferon beta (from UniProt P01575), the results for the Kd in the data set with IFNAR2 (Mus musculus) and with IFNAR1 (Mus musculus) were 1700 nM and 10 nM, respectively.
For Interferon beta (from UniProt P01574), the Kd was 30 nM with IFNAR1 (Homo sapiens) and 0.1 nM with IFNAR2 (Homo sapiens).
